In US20250270343A1 (Alector, published 2025):

T1: mouse GPNMB endogenously expressed on B16F10 cells (mouse, UniProt Q99P91 23-574)
T1 construct: whole, on cells; also called moGPNMB
T1 sequence (looked up): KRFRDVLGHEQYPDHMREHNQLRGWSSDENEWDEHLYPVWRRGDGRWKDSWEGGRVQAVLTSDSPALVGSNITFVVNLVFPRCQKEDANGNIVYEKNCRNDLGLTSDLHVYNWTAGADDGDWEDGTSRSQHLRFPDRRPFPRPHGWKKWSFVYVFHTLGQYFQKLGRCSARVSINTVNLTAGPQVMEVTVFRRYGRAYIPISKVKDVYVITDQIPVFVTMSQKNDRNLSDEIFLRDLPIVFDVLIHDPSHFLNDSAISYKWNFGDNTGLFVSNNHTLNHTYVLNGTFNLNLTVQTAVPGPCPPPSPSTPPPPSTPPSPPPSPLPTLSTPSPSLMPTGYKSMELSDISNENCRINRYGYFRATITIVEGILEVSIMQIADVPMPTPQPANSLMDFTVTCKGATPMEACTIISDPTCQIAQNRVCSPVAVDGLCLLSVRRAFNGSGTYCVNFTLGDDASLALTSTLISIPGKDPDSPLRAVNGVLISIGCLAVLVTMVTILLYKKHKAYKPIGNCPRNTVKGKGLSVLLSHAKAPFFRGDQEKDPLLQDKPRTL

T2: full-length untagged human GPNMB expressed on cells (human, UniProt Q14956 23-572)
T2 construct: also used here for GPNMB on human monocyte-derived macrophages in the functional assays; also called huGPNMB; Freestyle293-huGPNMB+
T2 sequence: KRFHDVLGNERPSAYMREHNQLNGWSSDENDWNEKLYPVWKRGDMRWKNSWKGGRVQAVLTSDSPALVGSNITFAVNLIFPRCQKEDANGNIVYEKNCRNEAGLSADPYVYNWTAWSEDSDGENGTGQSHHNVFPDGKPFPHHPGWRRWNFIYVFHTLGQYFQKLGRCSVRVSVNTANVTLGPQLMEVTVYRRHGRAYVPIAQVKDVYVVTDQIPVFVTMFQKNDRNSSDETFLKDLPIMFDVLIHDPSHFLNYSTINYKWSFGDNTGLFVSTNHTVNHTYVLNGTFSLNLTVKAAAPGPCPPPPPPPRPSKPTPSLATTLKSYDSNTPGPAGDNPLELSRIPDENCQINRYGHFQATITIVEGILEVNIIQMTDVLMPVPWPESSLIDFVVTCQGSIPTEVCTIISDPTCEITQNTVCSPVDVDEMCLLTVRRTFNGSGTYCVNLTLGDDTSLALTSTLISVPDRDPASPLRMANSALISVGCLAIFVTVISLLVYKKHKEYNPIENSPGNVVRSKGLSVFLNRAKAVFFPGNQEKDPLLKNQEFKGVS

T3: soluble mouse GPNMB-Fc polypeptide (mouse IgG2A Fc) (mouse, UniProt Q99P91 23-502)
T3 construct: extracellular domain; bought (R&D System); also called moGPNMB-Fc; mGPNMB-Fc; not shown: Fc region of mouse IgG2A
T3 sequence (looked up): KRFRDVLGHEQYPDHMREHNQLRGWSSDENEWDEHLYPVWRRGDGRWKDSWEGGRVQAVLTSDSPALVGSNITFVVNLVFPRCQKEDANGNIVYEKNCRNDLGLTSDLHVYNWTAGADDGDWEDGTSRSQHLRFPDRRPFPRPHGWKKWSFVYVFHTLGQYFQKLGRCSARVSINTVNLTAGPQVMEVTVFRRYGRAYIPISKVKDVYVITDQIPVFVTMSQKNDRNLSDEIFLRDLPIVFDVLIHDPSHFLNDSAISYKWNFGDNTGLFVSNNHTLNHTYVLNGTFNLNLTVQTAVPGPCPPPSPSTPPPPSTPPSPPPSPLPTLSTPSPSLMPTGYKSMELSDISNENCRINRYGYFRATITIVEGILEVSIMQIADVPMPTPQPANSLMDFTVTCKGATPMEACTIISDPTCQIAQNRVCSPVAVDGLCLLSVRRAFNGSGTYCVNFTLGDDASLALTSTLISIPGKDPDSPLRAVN


Key:
[1] = target: T1, mouse GPNMB endogenously expressed on …; assay: FACS, B16F10 cells; single-point FACS staining of B16F10 cells; weak signal, 1.7-fold over background
[2] = target: T1, mouse GPNMB endogenously expressed on …; assay: FACS titration on B16F10 cells (endogenous mouse GPNMB) at 4 C; fluorescent secondary antibody; MFI-APC against soluble antibody (nM)
Experimental: Cell-based binding measurements were also performed to measure the apparent affinities of anti-GPNMB antibodies of the present disclosure to cell-surface expressed GPNMB. Serial dilutions of the monoclonal anti-GPNMB antibodies were added to 100,000 Freestyle293-huGPNMB+ or B16F10 cells and allowed to achieve binding equilibrium at 4° C. After addition of fluorescently labeled secondary antibody and brief washing steps, MFI values as a function of titrated antibody concentration was recorded via FACS analysis. Curves were fit using nonlinear regression analysis with Graphpad Prism 6 software.

[3] = target: T2, full-length untagged human GPNMB …; assay: FACS, FS293-huGPNMB+ cells; single-point FACS staining of Freestyle293-huGPNMB+ cells; weak signal, 1.5-fold over background
[4] = target: T3, soluble mouse GPNMB-Fc polypeptide …; assay: FACS, enhancing of moGPNMB-Fc binding to SVEC4-10 cells
Experimental: Purified full-length anti-GPNMB antibodies of the present disclosure were evaluated for their ability to block binding of moGPNMB-Fc to SVEC4-10 cells to determine the ligand blocking potency of each anti-GPNMB monoclonal antibody. Briefly, 2 μg/mL moGPNMB-Fc (mouse IgG2A Fc) diluted in binding buffer was pre-complexed with increasing concentrations of anti-GPNMB antibody of the present disclosure or human IgG1 isotype control antibody in 96-well plates. Subsequently, 100,000 SVEC4-10 cells were added per well and incubated on ice for 30 minutes. Soluble moGPNMB-Fc bound to cell surface was detected with fluorescent anti-mouse IgG2A secondary antibody and measured on FACSCanto. (FIG. 5A and FIG. 5B) IC50 values (for antibodies that block moGPNMB-Fc cell binding) and EC50 values (for antibodies that enhance moGPNMB-Fc cell binding) based on changes in MFI values were calculated (average+standard error) for each anti-GPNMB antibody and listed in Table 6. In Table 6, NA indicates no activity. […] In all cases, certain anti-GPNMB antibodies of the present disclosure blocked soluble GPNMB binding to cells, while other anti-GPNMB antibodies of the present disclosure enhanced soluble GPNMB binding to cells.

[5] = target: T2, full-length untagged human GPNMB …; assay: FACS, FS293-huGPNMB+ cells; single-point FACS staining of Freestyle293-huGPNMB+ cells; weak signal, 2.0-fold over background

| Binder | MFI fold over background [1] [fold] | EC50 (read off the curve) [2] [nM] | EC50 [4] [nM] | other results |
| --- | --- | --- | --- | --- |
| anti-GPNMB antibody GPN-43 (antibody, human IgG1, V domains shown, chimeric) VH: EVQLQQSGPELVKPGASVKISCKASGYTFTDYYMNWVRQSHGKSLEWIGDINPYHGGSTYNQKIKVKATLTVDKSSSTAYMELRSLTSEDSAVYYCARNWPYFDYWGQGTTLTVSS VL: DIQMTQSPASLSASVGETVTITCRASENIYSFLVWYQQKQGKSPQLLVYNAKTLAEGVPSRFSGSGSGTQFSLKISSLQPEDFGSYYCQHHFGTPPYTFGGGTKLEIK |  |  |  | MFI fold over background [3]: 1.5 fold |
| anti-GPNMB antibody GPN-42 (antibody, human IgG1, V domains shown, chimeric) VH: DVKLVESGEDLVKPGGSLKLSCAASGFTFSSYAMSWVRQTPEKRLEWVAYISSGGDYIYYADTVKGRFTISRDNARNTLYLQMSSLKSEDTAMYYCTRDRYYDYDVRDYYTMDYWGQGTSVTVSS VL: DVMMTQTPLSLPVSLGDQASISCRSSQSLVHSNGNTYLHWFLQKPGQSPKLLIFRVSNRFSGVPDRFSGRGSGTDFTLKISRVEAEDLGVYFCSQTTHVPRTFGGGTTLEIK |  |  | 1.19 | MFI fold over background [5]: 2 fold |

More lines, main results first:

| MFI fold over background [1] [fold] | EC50 (read off the curve) [2] [nM] | EC50 [4] [nM] | Binder | other results |
| --- | --- | --- | --- | --- |
| 1.7 | ~0.1 |  | anti-GPNMB antibody GPN-61 (antibody, human IgG1, V domains shown, chimeric) VH: DVQLQESGPGLVKPSQTVFLTCTVTGISITTGNYRWSWIRQFPGNKLEWIGYIYYSGTITYNPSLTSRTTITRDTPKNQFFLEMSSLTAEDTATYFCARDLRHWYFDVWGTGTTVTVSS VL: not shown |  |
| 1.7 | ~1 |  | anti-GPNMB antibody GPN-48 (antibody, human IgG1, V domains shown, chimeric) VH: QVQLQQSGPELVKPGASVKLSCRASGYGFSSFWMNWVKQRPGKGLEWIGRIYPGKGDTLYNGKFKDKATLTADESSSTAYMQLSSLTSEDSAVYFCARSIYYYDYWYFDVWDTGTTVTVSS VL: DIVMTQSHKFMSTSVGDRVNITCKASQDVNSAIAWYQQKPGQSPKLLIYSASYRFIGVPDRFTGSGSGTGFTFTISSVQAEDLAVYYCQQHYTTPLTFGAGTKLELK |  |
|  |  | 4.27 | anti-GPNMB antibody GPN-65 (antibody, human IgG1, V domains shown, chimeric) VH: QLQLQQSGTEVVKPGASVKIPCKASGYAFSSYWMNWVKQRPGKGLEWIGQIYPGDGDTNDNGKFEGKATLTVDKSSNTAYIQLSSLTSEDSAVYFCARSPLHLRGSMDYWGQGTSVTVSS VL: SIVMTQTPKFLLVSAGDRVTITCKASQSVSNDVAWFQQKPGQSPELLIYSASNRYTGVPDRFTGSGYGTDFTFTISTVQAEDLAVYFCQQNYYSPFTFGGGTRLEIK |  |
